MFI and Mean MFI data for 17 molecules are collected here from patent US20240002497A1.

Experiment [1] deals with huNav1.5-β1-β2-β3 (human) (UniProt Q14524). Kind of experiment: binding FACS, HEK Flp-In.
Experiment [2] shares this target. Briefly: FACS, CHO Flp-In, competitor 1 µM IRR00092. (Flow cytometry measures light scatter and fluorescence of single cells or particles in a stream.)
Experiment [3] has the same target. Kind of experiment: FACS, CHO Flp-In, competitor 1 µM F010300703.
For experiment [4] the target is unchanged. Kind of experiment: binding FACS, CHO Flp-In, periplasmic extract.
Experiment [5] concerns the target rhNav1.7α + β1-β2-β3 (rhesus Nav1.7α co-expressed with Navβ1, Navβ2 and Navβ3) (rhesus monkey). Kind of experiment: FACS, periplasmic extract, CHO Flp-In cells; SD MFI 18.
The target is the same in experiment [6]. Briefly: FACS, periplasmic extract, CHO Flp-In cells; SD MFI 6.
The target of experiment [7] is muNav1.7α (murine Nav1.7α) (murine) (UniProt Q62205). Kind of experiment: FACS, periplasmic extract, HEK Jmp-In cells; SD MFI 1.
For experiment [8], the target named is rhNav1.7α + β1-β2-β3 (rhesus Nav1.7α co-expressed with Navβ1, Navβ2 and Navβ3) (rhesus monkey). Kind of experiment: FACS, periplasmic extract, CHO Flp-In cells; SD MFI 10.
In experiment [9] the target is muNav1.7α (murine Nav1.7α) (murine) (UniProt Q62205). Kind of experiment: FACS, periplasmic extract, HEK Jmp-In cells; SD MFI 19.
For experiment [10], the target named is rhNav1.7α + β1-β2-β3 (rhesus Nav1.7α co-expressed with Navβ1, Navβ2 and Navβ3) (rhesus monkey). Briefly: FACS, periplasmic extract, CHO Flp-In cells; SD MFI 30.
Experiment [11] has the same target. Kind of experiment: FACS, periplasmic extract, CHO Flp-In cells; SD MFI 1.
The target of experiment [12] is muNav1.7α (murine Nav1.7α) (murine) (UniProt Q62205). Briefly: FACS, periplasmic extract, HEK Jmp-In cells; SD MFI 8.
Experiment [13] has as its target huNav1.7α + β1-β2-β3 (human Nav1.7α co-expressed with Navβ1, Navβ2 and Navβ3) (human) (UniProt Q15858). Kind of experiment: FACS, periplasmic extract, CHO Flp-In cells; SD MFI 16.
In experiment [14] the target is rhNav1.7α + β1-β2-β3 (rhesus Nav1.7α co-expressed with Navβ1, Navβ2 and Navβ3) (rhesus monkey). Kind of experiment: FACS, periplasmic extract, CHO Flp-In cells; SD MFI 20.
In experiment [15] the target is muNav1.7α (murine Nav1.7α) (murine) (UniProt Q62205). Briefly: FACS, periplasmic extract, HEK Jmp-In cells; SD MFI 12.
The target of experiment [16] is rhNav1.7α + β1-β2-β3 (rhesus Nav1.7α co-expressed with Navβ1, Navβ2 and Navβ3) (rhesus monkey). Kind of experiment: FACS, periplasmic extract, CHO Flp-In cells; SD MFI 0.
Experiment [17] addresses muNav1.7α (murine Nav1.7α) (murine) (UniProt Q62205). Kind of experiment: FACS, periplasmic extract, HEK Jmp-In cells; SD MFI 15.
Experiment [18] has the same target. Kind of experiment: FACS, periplasmic extract, HEK Jmp-In cells; SD MFI 25.
For experiment [19], the target named is rhNav1.7α + β1-β2-β3 (rhesus Nav1.7α co-expressed with Navβ1, Navβ2 and Navβ3) (rhesus monkey). Briefly: FACS, periplasmic extract, CHO Flp-In cells; SD MFI 8.
Experiment [20] has as its target muNav1.7α (murine Nav1.7α) (murine) (UniProt Q62205). Kind of experiment: FACS, periplasmic extract, HEK Jmp-In cells; SD MFI 21.
Experiment [21] shares this target. Briefly: FACS, periplasmic extract, HEK Jmp-In cells; SD MFI 16.
The target is the same in experiment [22]. Briefly: FACS, periplasmic extract, HEK Jmp-In cells; SD MFI 0.
Experiment [23] has the same target. Briefly: FACS, periplasmic extract, HEK Jmp-In cells; SD MFI 7.
For experiment [24], the target named is rhNav1.7α + β1-β2-β3 (rhesus Nav1.7α co-expressed with Navβ1, Navβ2 and Navβ3) (rhesus monkey). Briefly: FACS, periplasmic extract, CHO Flp-In cells; SD MFI 13.

B1: F0103PMP492E09 (bispecific antibody)
chain: EVQLVESGGGLVQPGGSLRLSCAASGSIFNINSMAWYRRAPGKQRELVASSTNGGSTNYADSVKGRFTISRDNAKRVYLQMNSLTPEDTAVYYCRALLQPSIYDISRTYWGQGTLVTVSSGGGGSGGGGSGGGGSGGGGSGGGGSGGGGSGGGGSGGGGSGGGGSGGGGSEVQLVESGGGLVQAGGSLRLSCAASKSILSFAYMRWYRQAPGKQREFVASIAIGGATSYTDSVKGRFTISRDNAKNTVYLQMNSLKPEDTAVYYCSAPAGQYRGQGTLVTVSSAAADYKDHDGDYKDHDIDYKDDDDKGAAHHHHHHKAAGGGGG
B1: the MFI in experiment [1] worked out at 1660 MFI; in experiment [2], 1860 MFI; in experiment [3] it was 825 MFI; in experiment [4], 559 MFI.

B2: F0103464B09 N99A library variant (VHH, name in Kabat numbering)
VHH: EVQLVESGGGLVQPGGSLRLSCATTSRAFIRDVFTGWYRRVPGKERELVARIYNGGNTNYADFAKGRFSISRDNAKKMVTLRMSNLKPEDTGVYYCLFSGTIATGREYRSGDYWGQGTLVTVSS
For B2, in [5], the Mean MFI stood at 611 MFI.

B3: F0103464B09 N99F library variant (VHH, name in Kabat numbering)
VHH: EVQLVESGGGLVQPGGSLRLSCATTSRAFIRDVFTGWYRRVPGKERELVARIYNGGNTNYADFAKGRFSISRDNAKKMVTLRMSNLKPEDTGVYYCLFSGTIFTGREYRSGDYWGQGTLVTVSS
For the molecule B3, the Mean MFI came out at 516 MFI in experiment [6] and 938 MFI in [7].

B4: F0103464B09 N99L library variant (VHH, name in Kabat numbering)
VHH: EVQLVESGGGLVQPGGSLRLSCATTSRAFIRDVFTGWYRRVPGKERELVARIYNGGNTNYADFAKGRFSISRDNAKKMVTLRMSNLKPEDTGVYYCLFSGTILTGREYRSGDYWGQGTLVTVSS
Turning to B4, the Mean MFI in experiment [8] came out at 536 MFI; in experiment [9], 919 MFI.

B5: F0103464B09 T100F library variant (VHH, name in Kabat numbering)
VHH: EVQLVESGGGLVQPGGSLRLSCATTSRAFIRDVFTGWYRRVPGKERELVARIYNGGNTNYADFAKGRFSISRDNAKKMVTLRMSNLKPEDTGVYYCLFSGTINFGREYRSGDYWGQGTLVTVSS
Take B5: the Mean MFI is 533 MFI in [10] and 997 MFI in experiment [9].

B6: F0103464B09 N99K library variant (VHH, name in Kabat numbering)
VHH: EVQLVESGGGLVQPGGSLRLSCATTSRAFIRDVFTGWYRRVPGKERELVARIYNGGNTNYADFAKGRFSISRDNAKKMVTLRMSNLKPEDTGVYYCLFSGTIKTGREYRSGDYWGQGTLVTVSS
As for B6, the Mean MFI in [11] came to 537 MFI; in experiment [12], 923 MFI.

B7: F0103464B09 N99P library variant (VHH, name in Kabat numbering)
VHH: EVQLVESGGGLVQPGGSLRLSCATTSRAFIRDVFTGWYRRVPGKERELVARIYNGGNTNYADFAKGRFSISRDNAKKMVTLRMSNLKPEDTGVYYCLFSGTIPTGREYRSGDYWGQGTLVTVSS
Consider B7, for which the Mean MFI in experiment [13] turned out to be 612 MFI; in experiment [14] it was 554 MFI; in experiment [15] it was 912 MFI.

B8: F0103464B09 N99M library variant (VHH, name in Kabat numbering)
VHH: EVQLVESGGGLVQPGGSLRLSCATTSRAFIRDVFTGWYRRVPGKERELVARIYNGGNTNYADFAKGRFSISRDNAKKMVTLRMSNLKPEDTGVYYCLFSGTIMTGREYRSGDYWGQGTLVTVSS
On to B8, for which the figures for the Mean MFI in experiment [16] and in experiment [17] were 523 MFI and 936 MFI, respectively.

B9: F0103464B09 N99C library variant (VHH, name in Kabat numbering)
VHH: EVQLVESGGGLVQPGGSLRLSCATTSRAFIRDVFTGWYRRVPGKERELVARIYNGGNTNYADFAKGRFSISRDNAKKMVTLRMSNLKPEDTGVYYCLFSGTICTGREYRSGDYWGQGTLVTVSS
For B9, the Mean MFI in experiment [6] was 528 MFI; in experiment [18], 930 MFI.

B10: F0103464B09 N99G library variant (VHH, name in Kabat numbering)
VHH: EVQLVESGGGLVQPGGSLRLSCATTSRAFIRDVFTGWYRRVPGKERELVARIYNGGNTNYADFAKGRFSISRDNAKKMVTLRMSNLKPEDTGVYYCLFSGTIGTGREYRSGDYWGQGTLVTVSS
As to B10, the results for the Mean MFI in experiment [19] and in experiment [20] were 530 MFI and 956 MFI, respectively.

B11: F0103464B09 N99V library variant (VHH, name in Kabat numbering)
VHH: EVQLVESGGGLVQPGGSLRLSCATTSRAFIRDVFTGWYRRVPGKERELVARIYNGGNTNYADFAKGRFSISRDNAKKMVTLRMSNLKPEDTGVYYCLFSGTIVTGREYRSGDYWGQGTLVTVSS
For the molecule B11, the Mean MFI stood at 552 MFI in experiment [6] and 952 MFI in [21].

B12: F0103464B09 N99D library variant (VHH, name in Kabat numbering)
VHH: EVQLVESGGGLVQPGGSLRLSCATTSRAFIRDVFTGWYRRVPGKERELVARIYNGGNTNYADFAKGRFSISRDNAKKMVTLRMSNLKPEDTGVYYCLFSGTIDTGREYRSGDYWGQGTLVTVSS
Turning to B12, the Mean MFI was found to be 929 MFI in experiment [22] and 520 MFI in experiment [10].

B13: F0103464B09 N99I library variant (VHH, name in Kabat numbering)
VHH: EVQLVESGGGLVQPGGSLRLSCATTSRAFIRDVFTGWYRRVPGKERELVARIYNGGNTNYADFAKGRFSISRDNAKKMVTLRMSNLKPEDTGVYYCLFSGTIITGREYRSGDYWGQGTLVTVSS
In the case of B13, the Mean MFI in experiment [6] is 540 MFI; in experiment [23] it was 946 MFI.

B14: F0103464B09 T100V library variant (VHH, name in Kabat numbering)
VHH: EVQLVESGGGLVQPGGSLRLSCATTSRAFIRDVFTGWYRRVPGKERELVARIYNGGNTNYADFAKGRFSISRDNAKKMVTLRMSNLKPEDTGVYYCLFSGTINVGREYRSGDYWGQGTLVTVSS
Consider B14, for which the Mean MFI in experiment [24] stood at 564 MFI; in experiment [21], 1680 MFI.

B15: F0103464B09 N99E library variant (VHH, name in Kabat numbering)
VHH: EVQLVESGGGLVQPGGSLRLSCATTSRAFIRDVFTGWYRRVPGKERELVARIYNGGNTNYADFAKGRFSISRDNAKKMVTLRMSNLKPEDTGVYYCLFSGTIETGREYRSGDYWGQGTLVTVSS
As for B15, the values for the Mean MFI in experiment [6] and in experiment [7] were 528 MFI and 938 MFI, respectively.

B16: F0103464B09 T100D library variant (VHH, name in Kabat numbering)
VHH: EVQLVESGGGLVQPGGSLRLSCATTSRAFIRDVFTGWYRRVPGKERELVARIYNGGNTNYADFAKGRFSISRDNAKKMVTLRMSNLKPEDTGVYYCLFSGTINDGREYRSGDYWGQGTLVTVSS
In the case of B16, in experiment [11], the Mean MFI is 526 MFI.

B17: F0103PMP478E09 (bispecific antibody)
chain: EVQLVESGGGLVQPGGSLRLSCAASGSIFNINSMAWYRRAPGKQRELVASSTNGGSTNYADSVKGRFTISRDNAKRVYLQMNSLTPEDTAVYYCRALLQPSIYDISRTYWGQGTLVTVSSGGGGSGGGGSGGGGSGGGGSGGGGSGGGGSGGGGSGGGGSGGGGSGGGGSEVQLVESGGGLVQAGGSLRLSCAASGRAFSTLAMGWFRQAPGKEREFVAAISRNGNNSATGDSLKGRFTISRDSTKSTVFLQMNTLKPEDTAVYYCAAISTPSASHPYVRKESYRYWGQGTQVTVSSAAADYKDHDGDYKDHDIDYKDDDDKGAAHHHHHHKAAGGGGG
For the molecule B17, the MFI came to 877 MFI in [1], 2060 MFI in experiment [2], 833 MFI in [3] and 1080 MFI in [4].
